In the supplement of paper PMC10567573:
± gives the standard deviation.

Assay: protein stability index of a GFP-peptide fusion (GPS, HEK-293T) (PSI 1-6); higher = more stable
[1] = treatment: DMSO, c terminus: a fixed tail appended
[2] = treatment: MLN4924 1 uM, 8 h, c terminus: a fixed tail appended
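Also: 24-mer peptide tiles fused after GFP, lentivirally expressed, FACS-sorted into six equal bins by GFP/DsRed ratio, decoded by Illumina sequencing, PSI is the read-weighted mean bin number.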

Sequence	protein stability index [1]	protein stability index [2]	protein stability index (treatment: DMSO, c terminus: native)	protein stability index (treatment: MLN4924 1 uM, 8 h, c terminus: native)
DDHGDECSYTDLLPQDEGGGGYSS [KCNA4]	5.52 ± 0.22	5.62 ± 0.082		
DDHLQQPLQNQKILKRTGQRYEHG [ZNF649]	4.84 ± 0.085	4.97 ± 0.23		
DDSPRSALAAATAAAAAAASAAAA [SPAG8]	4.79 ± 0.39	4.86 ± 0.42		
DDYTSAIEVQPNFEVPYYNRGLIL [TTC32]	2.4 ± 0.45	2.42 ± 0.38		
DEDLDLIPPKSVNPTCMCCQATSS [FAM219A]	4.63 ± 0.33	4.53 ± 0.63		
DEGRLVLEFSLLSYAFGKFPTVVW [SOAT1]	2.33 ± 0.68	3.07 ± 0.14		
DEKQQEANETLAEMEEELRYAPLS [VTI1B]	5.55 ± 0.15	5.55 ± 0.2		
DESGYVSGYKHAGTYDQKVQGGK [TPPP]			5.24 ± 0.15	5.4 ± 0.24
DEVARRWGKRKNKPKMNYEKLSRG [ETS2]	4.11 ± 0.35	4.31 ± 0.52		
DEWACELRLFGRVLERAACLRRCK [P3H4]	2.74 ± 0.49	2.8 ± 0.6		
DFPDILEQQRKLETYLQNHFAEEE [TENT5C]	4.45 ± 0.27	4.56 ± 0.22		
DGEEIPVQKNILAAASPYIRTKLN [GAN]	4.13 ± 0.33	4.32 ± 0.28		
DGTFSPVTLALFFVLYFLLACWTY [CLCN6]	3.07 ± 0.34	2.9 ± 0.21		
DHIIEKKRTIIPTLVEAIKEQDGR [DFFB]	4.63 ± 0.24	4.68 ± 0.2		
DLDETLIHSHHDGVLRPTVRPGTP [CTDNEP1]	4.53 ± 0.086	4.67 ± 0.21		
DLEPGVLMSAQTITSETTSTTTTT [EPB41L3]	5.19 ± 0.32	5.17 ± 0.11		
DLNNCKNNLEPILEGYISNLRKQL [KRT71]	2.58 ± 0.21	2.76 ± 0.5		
DLRTVDPETQARLEALLEAAGIGK [ANKRD17]	3.84 ± 0.36	3.94 ± 0.16		

Sequence	protein stability index [1]	protein stability index [2]	protein stability index (treatment: DMSO, c terminus: native)	protein stability index (treatment: MLN4924 1 uM, 8 h, c terminus: native)
DLSKPPCRKAKEIRKERKRLKLMQ [ATE1]	3.55 ± 0.13	3.64 ± 0.35		
DMLREMFSDSRSNNDDDEDEDDED [TAF7L]	5.36 ± 0.36	5.63 ± 0.17		
DNAEAAFSDDEEDLNSKGKKREFR [INTS3]	5.51 ± 0.16	5.47 ± 0.2		
DNWIPLLWCANILGYAVSTFAMVK [DHCR7]	3.04 ± 0.44	3.17 ± 0.12		
DPLFGMCEKFLQEVDFFQRYFIAD [INTS4]	2.6 ± 0.36	2.21 ± 0.35		
DPLPAAAVGAAAEAEADEEADPPA [SNX8]	5.59 ± 0.3	5.71 ± 0.14		
DPTWIESPKTNGHIENGPFSLEQQ [SRPK2]	4.78 ± 0.11	4.75 ± 0.22		
DQIRQGIQLKSVADGQESTPPTPA [WASL]	5.33 ± 0.16	5.51 ± 0.15		
DQNASTHTPQSSVKTSVPSSKSSG [CLINT1]	5.02 ± 0.24	5.2 ± 0.14		
DQVPSMQDGSESFFFRHGHRGLLT [SPAG8]	3.39 ± 0.28	3.54 ± 0.35		
DRKSVKFVETRLRDLPDTPRRFTF [TRIM39]	2.98 ± 0.12	3.08 ± 0.29		
DSDENSKPSVDTEGPALVEIDRSV [MIA2]	5.16 ± 0.78	5.29 ± 0.56		
DSFVCQCSEGFLINEDLKTCSRVD [MATN2]	3.57 ± 0.38	3.9 ± 0.45		
DSGGSDVDLDPTDGKLFPSDGFRD [ELF3]	5.38 ± 0.16	5.42 ± 0.15		
DSLDEARSSGSEGTPADTGDLSPG [PWWP2B]	5.6 ± 0.18	5.52 ± 0.15		
DSLLLHSSGQCRRRKRTYWNDSCG [WEE1]	2.75 ± 0.29	2.82 ± 0.47		
DSSEKELEPEAAEEALENGPKESL [ACBD3]	5.62 ± 0.24	5.55 ± 0.22		
DSVAEVAAKARDTGILIFAIGVGQ [MATN2]	2.73 ± 0.9	2.64 ± 0.97		
